The text below walks through data of patent publication US20240343791A1 (YUANPU BIOTECHNOLOGY WUHAN, published 2024).

The target in the test is T1, human VEGFC (Cat. No. Z03286, Genscript) (human, UniProt P49767 112-227, limits assumed).
T1 construct: Bought protein; also called VC
T1 sequence (looked up): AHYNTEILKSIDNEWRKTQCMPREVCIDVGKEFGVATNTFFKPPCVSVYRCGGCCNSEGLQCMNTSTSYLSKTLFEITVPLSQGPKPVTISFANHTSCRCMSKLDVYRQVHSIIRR
As to the kind of experiment: SPR (Biacore), protein captured on protein A chip, VEGFC as analyte, 25 C. As to the method: Human VEGFC (Cat. No.: Z03286-10 μg, Genscript, China) solutions with concentrations of 10, 5, 2.5, 1.25, 0.63, 0.31, 0.16, 0.08, and 0 (blank) nM were produced by diluted into a running buffer. Each analysis cycle comprises: (1) capturing the bispecific protein on flow pool 2 (Fc2), (2) injecting the VEGFC solution onto flow cells 1 and 2 (Fc1 and Fc2) at a rate of 30 μL/minute (for 120 seconds), (3) allowing 1×HBS-EP+buffer to flow at 30 μL/minute through the chip for 360 seconds to monitor the dissociation phase, (4) injecting a 10 mM glycine hydrochloride buffer, pH 1.5, to allow surface regeneration of the chip. The data was processed by Biacore™ Insight Evaluation software, using standard double reference and fitting with a 1:1 binding model, to determine the binding rate (kₐ) and dissociation rate (kd).
In general terms: Surface plasmon resonance follows binding to a sensor surface in real time, without labels.

Usually Kd stands for the constant that tells how readily two partners part at equilibrium. Higher therefore signals weaker binding. One may read the koff as a measure of how fast the partners let go of each other. Read a low koff as slow dissociation. Broadly, the kon is the second-order rate constant of association.

B1: OPT-302 (other, not shown: a dimerising Fc or GST; small tags and cut ends)
chain: YSMTPPTLNITEESHVIDTGDSLSISCRGQHPLEWAWPGAQEAPATGDKDSEDTGVVRDCEGTDARPYCKVLLLHEVHAQDTGSYVCYYKYIKARIEGTTAASSYVFVRDFEQPFINKPDTLLVNRKDAMWVPCLVSIPGLNVTLRSQSSVLWPDGQEVVWDDRRGMLVSTPLLHDALYLQCETTWGDQDFLSNPFLVHITGNELYDIQLLPRKSLELLVGEKLVLNCTVWAEFNSGVTFDWDYPGKQAERGKWVPERRSQQTHTELSSILTIHNVSQHDLGSYVCKANNGIQRFRESTEVIVHE
notes: captured on protein A chip
As to B1, the Kd is 0.562 nM, the koff worked out at 0.0033 s⁻¹ and the kon amounted to 5.87e+06 M⁻¹ s⁻¹.
